Measurements published in the Immune Epitope Database (IEDB).

Columns and labels:
HLA-A*03:01 [1] = assay: IEDB peptide-MHC binding, purified MHC/direct/fluorescence; filed as Kd, often an IC50 or EC50 that approximates it; ≥ and ≤ were set here for values at or beyond the usual limits of such assays
HLA-B*15:01 [2] = assay: as above
HLA-A*69:01 = assay: as above
HLA-A*02:01 = assay: as above
HLA-A*11:01 = assay: as above
HLA-A*01:01 [3] = assay: as above
HLA-A*31:01 [4] = assay: as above
HLA-B*35:01 = assay: as above
HLA-B*40:01 = assay: as above
HLA-B*27:05 = assay: as above
HLA-A*26:01 [5] = assay: as above
HLA-B*08:01 = assay: as above
HLA-B*07:02 [6] = assay: as above
HLA-B*44:02 = assay: as above; conditions: source organism: Camelpox virus M-96
HLA-B*58:01 = assay: as above
HLA-B*45:06 = assay: IEDB peptide-MHC binding, purified MHC/competitive/fluorescence; filed as Kd, often an IC50 or EC50 that approximates it; ≥ and ≤ were set here for values at or beyond the usual limits of such assays; conditions: source organism: Homo sapiens
HLA-A*29:02 = assay: as above; conditions: source organism: Homo sapiens
HLA-B*83:01 = assay: as above; conditions: source organism: Homo sapiens
HLA-A*01:01 [7] = assay: as above; conditions: source organism: Homo sapiens
HLA-B*15:42 = assay: as above; conditions: source organism: Homo sapiens
HLA-A*03:01 [8] = assay: as above
HLA-A*31:01 [9] = assay: as above
HLA-B*27:03 = assay: as above; conditions: source organism: Giardia lamblia ATCC 50803
HLA-B*57:01 = assay: as above; conditions: source organism: Giardia lamblia ATCC 50803
HLA-B*51:01 = assay: as above
HLA-B*15:01 [10] = assay: as above
HLA-B*15:17 = assay: as above; conditions: source organism: Giardia lamblia ATCC 50803
HLA-A*26:01 [11] = assay: as above; conditions: source organism: Giardia lamblia ATCC 50803
HLA-B*18:01 = assay: as above; conditions: source organism: Giardia lamblia ATCC 50803
HLA-B*46:01 = assay: as above; conditions: source organism: Giardia lamblia ATCC 50803
HLA-B*07:02 [12] = assay: as above; conditions: source organism: Shigella boydii CDC 3083-94
HLA-A*24:03 = assay: IEDB peptide-MHC binding, purified MHC/direct/fluorescence; filed as Kd, often an IC50 or EC50 that approximates it; ≥ and ≤ were set here for values at or beyond the usual limits of such assays; conditions: source organism: Pasteurella multocida
HLA-C*12:03 = assay: as above
[13] = source organism: Camelpox virus M-96
[14] = source organism: Influenza A virus (A/nt/60/1968(H3N2))
[15] = source organism: Campylobacter jejuni
[16] = source organism: Giardia lamblia ATCC 50803
[17] = source organism: Shigella boydii CDC 3083-94
[18] = source organism: Pasteurella multocida

## SQEDNHFSL
HLA-A*03:01 [1]; [13]
  Kd: ≥ 20 µM
HLA-B*15:01 [2]; source organism: Variola virus
  Kd: 2.79 µM
HLA-A*69:01; [13]
  Kd: ≥ 20 µM
HLA-A*02:01; [13]
  Kd: ≥ 20 µM
HLA-A*11:01; [13]
  Kd: ≥ 20 µM
HLA-A*01:01 [3]; [13]
  Kd: ≥ 20 µM
HLA-A*31:01 [4]; [13]
  Kd: ≥ 20 µM
HLA-B*35:01; source organism: Variola virus
  Kd: 1.56 µM
HLA-B*40:01; source organism: Variola virus
  Kd: 0.141 µM
HLA-B*27:05; [13]
  Kd: ≥ 20 µM
HLA-A*26:01 [5]; [13]
  Kd: ≥ 20 µM
HLA-B*08:01; [13]
  Kd: ≥ 20 µM
HLA-B*07:02 [6]; [13]
  Kd: ≥ 20 µM
HLA-B*44:02
  Kd: ≥ 20 µM
HLA-B*58:01; [13]
  Kd: ≥ 20 µM

## STMRRMALR
HLA-B*45:06
  Kd: ≥ 5 µM
HLA-A*29:02
  Kd: ≥ 20 µM
HLA-B*83:01
  Kd: ≥ 5 µM
HLA-A*01:01 [7]
  Kd: ≥ 20 µM
HLA-B*15:42
  Kd: ≥ 5 µM

## TIHDRIPHR
HLA-A*03:01 [8]; [14]
  Kd: 0.0619 µM
HLA-A*31:01 [9]; [14]
  Kd: 0.0204 µM

## TLYYLECKR
HLA-A*31:01 [9]; [15]
  Kd: 0.0545 µM
HLA-A*03:01 [1]; [15]
  Kd: ≥ 20 µM

## TMNSRYYLV
HLA-A*03:01 [8]; [16]
  Kd: ≥ 20 µM
HLA-B*27:03
  Kd: ≥ 20 µM
HLA-B*57:01
  Kd: ≥ 20 µM
HLA-B*51:01; [16]
  Kd: ≥ 20 µM
HLA-B*15:01 [10]; [16]
  Kd: ≥ 20 µM
HLA-A*31:01 [9]; [16]
  Kd: 0.0725 µM
HLA-B*15:17
  Kd: ≥ 20 µM
HLA-A*26:01 [11]
  Kd: ≥ 20 µM
HLA-B*18:01
  Kd: ≥ 20 µM
HLA-B*46:01
  Kd: ≥ 20 µM

## TPAVCGPVI
HLA-B*51:01; [17]
  Kd: 1.86 µM
HLA-B*15:01 [10]; [17]
  Kd: ≥ 20 µM
HLA-B*07:02 [12]
  Kd: 0.0238 µM

## TVHDRTPYR
HLA-A*31:01 [9]; source organism: Influenza A virus (A/Waikato/7/2000(H3N2))
  Kd: ≥ 20 µM
HLA-A*03:01 [1]; source organism: Influenza A virus (A/SW/MN/3128/00(H1N2))
  Kd: ≥ 20 µM

## VMLDWGIEL
HLA-A*03:01 [1]; [18]
  Kd: ≥ 20 µM
HLA-B*15:01 [2]; [18]
  Kd: 0.267 µM
HLA-A*69:01; [18]
  Kd: 0.599 µM
HLA-A*02:01; [18]
  Kd: 0.00619 µM
HLA-A*11:01; [18]
  Kd: 3.03 µM
HLA-A*01:01 [3]; [18]
  Kd: ≥ 20 µM
HLA-A*31:01 [4]; [18]
  Kd: ≥ 20 µM
HLA-B*35:01; [18]
  Kd: 0.297 µM
HLA-B*40:01; [18]
  Kd: ≥ 20 µM
HLA-B*27:05; [18]
  Kd: ≥ 20 µM
HLA-A*26:01 [5]; [18]
  Kd: ≥ 20 µM
HLA-B*08:01; [18]
  Kd: ≥ 20 µM
HLA-A*24:03
  Kd: ≥ 20 µM
HLA-B*07:02 [6]; [18]
  Kd: 11.3 µM
HLA-B*58:01; [18]
  Kd: ≥ 20 µM

## YQFTGIKKY
HLA-C*12:03; source organism: Homo sapiens
  Kd: ≤ 0.001 µM

## YYFQSGNEI
HLA-C*12:03; source organism: human gammaherpesvirus 4
  Kd: ≥ 20 µM
